Measurements from the supplement of paper PMC11246515.
± gives the standard deviation of the averaged measurements.

Test: total protein half-life in vivo (active degradation + dilution); higher = more stable protein
[1] = E. coli NCM3722 delta-clpP delta-lon delta-hslV, growth: N-lim chemostat, doubling time 6 h
[2] = E. coli NCM3722 delta-clpP, growth: N-lim chemostat, doubling time 6 h
[3] = E. coli NCM3722 delta-hslV, growth: N-lim chemostat, doubling time 6 h
[4] = E. coli NCM3722 delta-lon, growth: N-lim chemostat, doubling time 6 h
[5] = E. coli NCM3722 delta-smpB, growth: N-lim chemostat, doubling time 6 h
[6] = wild type E. coli NCM3722, growth: C-lim chemostat, doubling time 3 h
[7] = wild type E. coli NCM3722, growth: C-lim chemostat, doubling time 6 h
[8] = wild type E. coli NCM3722, growth: C-lim chemostat, doubling time 12 h
[9] = wild type E. coli NCM3722, growth: N-lim chemostat, doubling time 6 h
[10] = wild type E. coli NCM3722, growth: N-lim chemostat, doubling time 12 h
[11] = wild type E. coli NCM3722, growth: P-lim chemostat, doubling time 6 h
[12] = wild type E. coli NCM3722, growth: P-lim chemostat, doubling time 12 h

Row | Sequence | total protein half-life in vivo [1] | total protein half-life in vivo [2] | total protein half-life in vivo [3] | total protein half-life in vivo [4] | total protein half-life in vivo [5] | total protein half-life in vivo [6] | total protein half-life in vivo [7] | total protein half-life in vivo [8] | total protein half-life in vivo [9] | total protein half-life in vivo [10] | total protein half-life in vivo [11] | total protein half-life in vivo [12]
1 | MRACINNQQIRHHNKCVILELLYRQKRANKSTLARLAQISIPAVSNILQELESEKRVVNIDDESQTRGHSSGTWLIAPEGDWTLCLNVTPTSIECQVANACLSPKGEFEYLQIDAPTPQALLSEIEKCWHRHRKLWPDHTINLALAIHGQVDPVTGVSQTMPQAPWTTPVEVKYLLEEKLGIRVMVDNDCVMLALAEKWQNNSQERDFCVINVDYGIGSSFVINEQIYRGSLYGSGQIGHTIVNPDGVVCDCGRYGCLETVASLSALKKQARVWLKSQPVSTQLDPEKLTTAQLIAAWQSGEPWITSWVDRSANAIGLSLYNFLNILNINQIWLYGRSCAFGENWLNTIIRQTGFNPFDRDEGPSVKATQIGFGQLSRAQQVLGIGYLYVEAQLRQI | 6.39 ± 0.56 h | 6.61 h | 5.18 ± 0.99 h | 5.81 ± 0.79 h | 3.95 ± 0.094 h | > 4 h | 1.97 h | 3 h | 5.48 ± 0.83 h | 7.97 h | 3.12 h | 4.85 h
2 | MRALLPYLALYKRHKWMLSLGIVLAIVTLLASIGLLTLSGWFLSASAVAGVAGLYSFNYMLPAAGVRGAAITRTAGRYFERLVSHDATFRVLQHLRIYTFSKLLPLSPAGLARYRQGELLNRVVADVDTLDHLYLRVISPLVGAFVVIMVVTIGLSFLDFTLAFTLGGIMLLTLFLMPPLFYRAGKSTGQNLTHLRGQYRQQLTAWLQGQAELTIFGASDRYRTQLENTEIQWLEAQRRQSELTALSQAIMLLIGALAVILMLWMASGGVGGNAQPGALIALFVFCALAAFEALAPVTGAFQHLGQVIASAVRISDLTDQKPEVTFPDTQTRVADRVSLTLRDVQFTYPEQSQQALKGISLQVNAGEHIAILGRTGCGKSTLLQQLTRAWDPQQGEILLNDSPIASLNEAALRQTISVVPQRVHLFSATLRDNLLLASPGSSDEALSEILRRVGLEKLLEDAGLNSWLGEGGRQLSGGELRRLAIARALLHDAPLVLLDEPTEGLDATTESQILELLAEMMREKTVLMVTHRLRGLSRFQQIIVMDNGQIIEQGTHAELLARQGRYYQFKQGL | > 8 h | 6.58 ± 0.21 h | 6.08 ± 0.081 h | 6.01 ± 0.34 h | 5.928 ± 0.023 h | 3.08 ± 0.092 h | 5.92 ± 0.12 h | – | 5.99 ± 0.31 h | 11.7 ± 0.28 h | 6.274 ± 0.058 h | 12.3 ± 1.1 h
3 | MRDIQMVLERWGAWAANNHEDVTWSSIAAGFKGLITSKVKSRPQCCDDDAMIICGCMARLKKNNSDLHDLLVDYYVVGMTFMSLAGKHCCSDGYIGKRLQKAEGIIEGMLMALDIRLEMDIVVNNSN | 2.96 h | – | – | – | – | – | – | 8.73 h | – | – | 5.67 h | 10.4 ± 0.22 h
4 | MRFCLILITALLLAGCSHHKAPPPNARLSDSITVIAGLNDQLQSWHGTPYRYGGMTRRGVDCSGFVVVTMRDRFDLQLPRETKQQASIGTQIDKDELLPGDLVFFKTGSGQNGLHVGIYDTNNQFIHASTSKGVMRSSLDNVYWQKNFWQARRI | – | 1.22 h | – | 0.828 h | 1.61 ± 0.18 h | 0.468 ± 0.23 h | 1.4 h | > 16 h | – | 4.32 h | 2.28 h | 4.21 ± 0.75 h
5 | MRFVDEYRAPEQVMQLIEHLRERASHLSYTAERPLRIMEVCGGHTHAIFKFGLDQLLPENVEFIHGPGCPVCVLPMGRIDTCVEIASHPEVIFCTFGDAMRVPGKQGSLLQAKARGADVRIVYSPMDALKLAQENPTRKVVFFGLGFETTMPTTAITLQQAKARDVQNFYFFCQHITLIPTLRSLLEQPDNGIDAFLAPGHVSMVIGTDAYNFIASDFHRPLVVAGFEPLDLLQGVVMLVQQKIAAHSKVENQYRRVVPDAGNLLAQQAIADVFCVNGDSEWRGLGVIESSGVHLTPDYQRFDAEAHFRPAPQQVCDDPRARCGEVLTGKCKPHQCPLFGNTCNPQTAFGALMVSSEGACAAWYQYRQQESEA | 5.73 h | 3.17 ± 0.086 h | 2.4 h | 2.92 ± 0.14 h | – | 2.32 ± 0.034 h | 3.94 ± 0.33 h | 5.53 ± 0.43 h | 2.2 h | 2.79 h | 3.08 h | 5.78 h
6 | MRGKKRIGLLFLLIAVVVGGGGLLLAQKVLHKTSDTAFCLSCHSMSKPFEEYQGTVHFSNQKGIRAECADCHIPKSGMDYLFAKLKASKDIYHEFVSGKIDSDDKFEAHRQEMAETVWKELKATDSATCRSCHSFDAMDIASQSESAQKMHNKAQKDSETCIDCHKGIAHFPPEIKMDDNAAHELESQAATSVTNGAHIYPFKTSHIGELATVNPGTDLTVVDASGKQPIVLLQGYQMQGSENTLYLAAGQRLALATLSEEGIKALTVNGEWQADEYGNQWRQASLQGALTDPALADRKPLWQYAEKLDDTYCAGCHAPIAADHYTVNAWPSIAKGMGARTSMSENELDILTRYFQYNAKDITEKQ | – | – | – | – | – | 2.33 h | 4.09 h | 8.13 ± 1.1 h | – | – | – | –
